In this assay the target is T1, Aven (human, UniProt Q9NQS1 1-362).
T1 construct: also called Bif-1
T1 sequence: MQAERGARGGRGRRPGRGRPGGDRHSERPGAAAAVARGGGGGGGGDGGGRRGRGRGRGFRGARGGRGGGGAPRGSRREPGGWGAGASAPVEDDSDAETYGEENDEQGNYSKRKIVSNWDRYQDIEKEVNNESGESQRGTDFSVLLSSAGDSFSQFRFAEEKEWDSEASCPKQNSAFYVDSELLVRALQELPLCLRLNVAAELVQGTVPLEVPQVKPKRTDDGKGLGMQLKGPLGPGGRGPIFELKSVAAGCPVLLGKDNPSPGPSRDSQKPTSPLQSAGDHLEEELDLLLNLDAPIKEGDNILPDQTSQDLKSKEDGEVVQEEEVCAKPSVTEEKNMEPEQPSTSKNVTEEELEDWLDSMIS
The assay is described as follows: yeast two-hybrid / co-immunoprecipitation (FIG. 6).

Here are results for one molecule from US6570002 (Johns Hopkins, dated 2003).

B1: Bak (other, UniProt Q16611 1-211, looked up)
chain: MASGQGPGPPRQECGEPALPSASEEQVAQDTEEVFRSYVFYRHQQEQEAEGVAAPADPEMVTLPLQPSSTMGQVGRQLAIIGDDINRRYDSEFQTMLQHLQPTAENAYEYFTKIATSLFESGINWGRVVALLGFGYRLALHVYQHGLTGFLGQVTRFVVDFMLHHCIARWIAQRGGWVAALNLGNGPILNVLVVLGVVLLGQFVVRRFFKS
Consider B1, for which the binding result was “no binding”.
